Test results from the supplement of paper PMC7877785.
± gives the uncertainty stated by the source.

Test: self-splicing fitness, log relative to wild type (ln ratio); higher = more splicing; Tetrahymena group I intron in knt gene, E. coli kanamycin selection, DiMSum; sequences stand for … in CUCUCU…GGAGGGAAAAGUUAUCAGGCAUGCACCUGGUAGCUAGUCUUUAAACCAAUAGAUUGCAUCGGUUUAAAAGGCAAGACCGUCAAAUUGCGGGAAAGGGGUCAACAGCCGUUCAGUACCAAGUCUCAGGGGAAACUUUGAGAUGGCCUUGCAAAGGGUAUGGUAAUAAGCUGACGGACAUGGUCCUAACCACGCAGCCAAGUCCUAAGUCAACAGAUCUUCUGUUGAUAUGGAUGCAGUUCACAGACUAAAUGUCGGUCGGGGAAGAUGUAUUCUUCUCAUAAGAUAUAGUCGGACCUCUCCUUAAUGGGAGCUAGCGGAUGAAGUGAUGCAACACUGGAGCCGCUGGGAACUAAUUUGUAUGCGAAAGUAUAUUGAUUAGUUUUGGAGUACUCGUGGUCG
Summary of the method: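 DiMSum derived fitness as the error-weighted combination of fold changes across replicates, kanamycin versus no kanamycin, normalised to wild type. E. coli BL21(DE3) held the library, which randomised all eight P1ex-region intron nucleotides within the knt kanamycin-resistance gene on pET-22b(+). Six replicate transformations grew overnight at 37°C or 30°C on LB agar with or without 25 μg/mL kanamycin, also containing 100 μg/mL carbenicillin, 50 μM IPTG and 0.2% rhamnose, and pooled colonies were amplicon-sequenced on an Illumina HiSeq 2500.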

Row | Sequence | self-splicing fitness (ln) (30 °C) | self-splicing fitness (ln) (37 °C)
1 | CGUUAGCAAUAUUACGCACC | -1.94 ± 0.35 | -1.79 ± 0.48
2 | CGUUAGCAAUAUUACGCACG | -1.99 ± 0.31 | 
3 | CGUUAGCAAUAUUACGCCCA | -1.43 ± 0.16 | 0.14 ± 0.18
4 | CGUUAGCAAUAUUACGCCGU |  | -0.993 ± 0.44
5 | CGUUAGCAAUAUUACGCGAU | -2.89 ± 0.16 | -3.12 ± 0.32
6 | CGUUAGCAAUAUUACGCUAA |  | 0.0733 ± 0.29
7 | CGUUAGCAAUAUUACGGAAA | -1.93 ± 0.38 | -2.11 ± 0.31
8 | CGUUAGCAAUAUUACGGACU | -0.292 ± 0.08 | 0.16 ± 0.11
9 | CGUUAGCAAUAUUACGGCAU | -2.01 ± 0.11 | -1.13 ± 0.12
10 | CGUUAGCAAUAUUACGGCUC | -1.75 ± 0.33 | 0.277 ± 0.22
11 | CGUUAGCAAUAUUACGGGAA | -2.14 ± 0.17 | -2.36 ± 0.28
12 | CGUUAGCAAUAUUACGUGCA | -1.38 ± 0.11 | -0.0413 ± 0.11
13 | CGUUAGCAAUAUUACGUGGG | -1.39 ± 0.12 | -1.79 ± 0.16
14 | CGUUAGCAAUAUUACGUUAA | -3.44 ± 0.23 | -3.24 ± 0.28
15 | CGUUAGCAAUAUUACGUUAU | -2.76 ± 0.34 | -2.18 ± 0.37
16 | CUAAAGCAAUAUUACGAAAU | -3.55 ± 0.28 | -2.01 ± 0.46
17 | CUAAAGCAAUAUUACGAGCG | 0.136 ± 0.057 | 0.289 ± 0.073
18 | CUAAAGCAAUAUUACGAGCU | -4.12 ± 0.26 | -2.82 ± 0.38
19 | CUAAAGCAAUAUUACGAUUG | -0.545 ± 0.053 | -0.596 ± 0.06
20 | CUAAAGCAAUAUUACGCCCG | 0.465 ± 0.11 | -0.0373 ± 0.12
21 | CUAAAGCAAUAUUACGCCGA | -3.46 ± 0.24 | -2.42 ± 0.25
22 | CUAAAGCAAUAUUACGCCUA | -3.27 ± 0.23 | 
23 | CUAAAGCAAUAUUACGCGUU | -3.08 ± 0.13 | -2.67 ± 0.27
24 | CUAAAGCAAUAUUACGCUCU | -2.94 ± 0.41 | 
25 | CUAAAGCAAUAUUACGGAGA | -2.83 ± 0.16 | -2.79 ± 0.29

Row | Sequence | self-splicing fitness (ln) (30 °C) | self-splicing fitness (ln) (37 °C)
26 | CUAAAGCAAUAUUACGGCCA | -3.21 ± 0.31 | -2.08 ± 0.4
27 | CUAAAGCAAUAUUACGGCCG | 0.821 ± 0.14 | 0.575 ± 0.21
28 | CUAAAGCAAUAUUACGGCUG | 0.0357 ± 0.069 | -0.0492 ± 0.089
29 | CUAAAGCAAUAUUACGUACC |  | -2.03 ± 0.46
30 | CUAAAGCAAUAUUACGUCGG | -0.261 ± 0.061 | -0.189 ± 0.078
31 | CUAAAGCAAUAUUACGUCUA | -4.21 ± 0.27 | -2.2 ± 0.22
32 | CUAAAGCAAUAUUACGUGUG | -0.323 ± 0.049 | 0.387 ± 0.06
33 | CUAAAGCAAUAUUACGUUCU | -4.08 ± 0.24 | -3.07 ± 0.26
34 | CUACAGCAAUAUUACGAAGC | -3.61 ± 0.24 | -2.85 ± 0.25
35 | CUACAGCAAUAUUACGAAGG | -1.22 ± 0.1 | -1.49 ± 0.14
36 | CUACAGCAAUAUUACGAAGU | -4.24 ± 0.29 | -2.52 ± 0.19
37 | CUACAGCAAUAUUACGAAUC | -4.32 ± 0.23 | -2.61 ± 0.23
38 | CUACAGCAAUAUUACGACGU | -4.63 ± 0.23 | -3.03 ± 0.2
39 | CUACAGCAAUAUUACGAGGG | -3.38 ± 0.19 | -2.59 ± 0.2
40 | CUACAGCAAUAUUACGAUGC | -3.88 ± 0.39 | -2.81 ± 0.2
41 | CUACAGCAAUAUUACGCAGU | -3.78 ± 0.24 | -2.32 ± 0.22
42 | CUACAGCAAUAUUACGCCUU | -2.27 ± 0.2 | -1.4 ± 0.31
43 | CUACAGCAAUAUUACGCGAG | -2.9 ± 0.098 | -1.74 ± 0.1
44 | CUACAGCAAUAUUACGCGCA | -3.72 ± 0.22 | -2.12 ± 0.19
45 | CUACAGCAAUAUUACGCGGC | -2.27 ± 0.15 | -0.807 ± 0.14
46 | CUACAGCAAUAUUACGCUCG | -1.49 ± 0.089 | -1.46 ± 0.13
47 | CUACAGCAAUAUUACGGAGG | -2.21 ± 0.087 | -1.33 ± 0.11
48 | CUACAGCAAUAUUACGGAUU | -3.46 ± 0.14 | -2.5 ± 0.21
49 | CUACAGCAAUAUUACGGCUG | -3.92 ± 0.18 | -2.57 ± 0.22
50 | CUACAGCAAUAUUACGGGAU | -2.74 ± 0.15 | -2.99 ± 0.27

Row | Sequence | self-splicing fitness (ln) (30 °C) | self-splicing fitness (ln) (37 °C)
51 | CUACAGCAAUAUUACGGGCG | -1.2 ± 0.065 | -0.108 ± 0.092
52 | CUACAGCAAUAUUACGGUGC | -4.58 ± 0.28 | -2 ± 0.17
53 | CUACAGCAAUAUUACGGUGU | -3.23 ± 0.13 | -2.49 ± 0.14
54 | CUACAGCAAUAUUACGUACA | -1.78 ± 0.17 | -1.29 ± 0.2
55 | CUACAGCAAUAUUACGUCCU | -3.25 ± 0.18 | -2.38 ± 0.17
56 | CUACAGCAAUAUUACGUCUG | -1.77 ± 0.1 | -1.45 ± 0.13
57 | CUACAGCAAUAUUACGUUCA | -2.98 ± 0.19 | -0.865 ± 0.098
58 | CUACAGCAAUAUUACGUUGC | -3.67 ± 0.23 | -2.82 ± 0.21
59 | CUAGAGCAAUAUUACGAAUG | 0.298 ± 0.095 | 0.533 ± 0.11
60 | CUAGAGCAAUAUUACGACCU | -3.67 ± 0.27 | -2.99 ± 0.33
61 | CUAGAGCAAUAUUACGAGUA | -3.71 ± 0.23 | -1.17 ± 0.17
62 | CUAGAGCAAUAUUACGAUAU | -3.18 ± 0.27 | -2.09 ± 0.25
63 | CUAGAGCAAUAUUACGAUGA | -1.86 ± 0.14 | -1.12 ± 0.22
64 | CUAGAGCAAUAUUACGAUUG | -0.464 ± 0.071 | -0.493 ± 0.077
65 | CUAGAGCAAUAUUACGCACU | -4.52 ± 0.46 | -1.99 ± 0.41
66 | CUAGAGCAAUAUUACGCCGG |  | -0.534 ± 0.29
67 | CUAGAGCAAUAUUACGCGCA | -1.95 ± 0.33 | -1.21 ± 0.35
68 | CUAGAGCAAUAUUACGCGUA | -3.78 ± 0.2 | -2.97 ± 0.26
69 | CUAGAGCAAUAUUACGCUGA | -3.92 ± 0.23 | -2.25 ± 0.23
70 | CUAGAGCAAUAUUACGGAAU | -3.15 ± 0.27 | -2.82 ± 0.38
71 | CUAGAGCAAUAUUACGGCAA | -3.09 ± 0.22 | -2.96 ± 0.34
72 | CUAGAGCAAUAUUACGGCUC | -2.94 ± 0.25 | 
73 | CUAGAGCAAUAUUACGGGGC | -3.9 ± 0.33 | -2.31 ± 0.3
74 | CUAGAGCAAUAUUACGUAAU | -3.79 ± 0.2 | -2.22 ± 0.23
75 | CUAGAGCAAUAUUACGUGCU | -3.54 ± 0.28 | -0.493 ± 0.15

Row | Sequence | self-splicing fitness (ln) (30 °C) | self-splicing fitness (ln) (37 °C)
76 | CUAGAGCAAUAUUACGUGUC | -4.02 ± 0.3 | -2.88 ± 0.26
77 | CUAGAGCAAUAUUACGUUAU | -3.29 ± 0.16 | -2.3 ± 0.23
78 | CUAUAGCAAUAUUACGAAAG | -1.84 ± 0.1 | -1.01 ± 0.12
79 | CUAUAGCAAUAUUACGAACA | -2.76 ± 0.19 | -2.49 ± 0.2
80 | CUAUAGCAAUAUUACGAAGA | -3.01 ± 0.25 | 
81 | CUAUAGCAAUAUUACGAAGU | -3.32 ± 0.25 | -1.93 ± 0.28
82 | CUAUAGCAAUAUUACGAGUA | -2.86 ± 0.41 | -1.62 ± 0.23
83 | CUAUAGCAAUAUUACGAUGC | -4.97 ± 0.38 | -2.41 ± 0.2
84 | CUAUAGCAAUAUUACGCACG | -0.606 ± 0.14 | -0.255 ± 0.23
85 | CUAUAGCAAUAUUACGCCGU | -3.51 ± 0.29 | -2.6 ± 0.44
86 | CUAUAGCAAUAUUACGCUGA | -2.84 ± 0.24 | -2.32 ± 0.29
87 | CUAUAGCAAUAUUACGGCCU | -2.9 ± 0.38 | -1.78 ± 0.38
88 | CUAUAGCAAUAUUACGGGCG | -0.345 ± 0.084 | -0.342 ± 0.098
89 | CUAUAGCAAUAUUACGGUGU | -4.24 ± 0.27 | -1.93 ± 0.22
90 | CUAUAGCAAUAUUACGUAUC | -5.21 ± 0.32 | -2.48 ± 0.14
91 | CUAUAGCAAUAUUACGUCAU | -2.83 ± 0.33 | -3.05 ± 0.24
92 | CUAUAGCAAUAUUACGUCGG | -1.97 ± 0.2 | -1.33 ± 0.2
93 | CUAUAGCAAUAUUACGUCUU | -4.3 ± 0.32 | -2.76 ± 0.23
94 | CUAUAGCAAUAUUACGUGCC | -2.54 ± 0.32 | 
95 | CUAUAGCAAUAUUACGUGUG | -1.04 ± 0.079 | -0.474 ± 0.096
96 | CUAUAGCAAUAUUACGUUGU | -3.77 ± 0.19 | -3.85 ± 0.33
97 | CUCAAGCAAUAUUACGAACA | -3.45 ± 0.44 | -0.994 ± 0.31
98 | CUCAAGCAAUAUUACGACGA | -3.03 ± 0.23 | -1.35 ± 0.14
